Measurements from US20250197510A1 (published 2025).

Biological target: T1, FLT3 on Nalm16 cells (human, UniProt P36888 27-993)
T1 construct: whole, on cells; Also used for FLT3 on primary leukemic cells of patients in the functional rows; also called NALM16 (FLT3+); FLT3 on leukemic cells
T1 sequence (looked up): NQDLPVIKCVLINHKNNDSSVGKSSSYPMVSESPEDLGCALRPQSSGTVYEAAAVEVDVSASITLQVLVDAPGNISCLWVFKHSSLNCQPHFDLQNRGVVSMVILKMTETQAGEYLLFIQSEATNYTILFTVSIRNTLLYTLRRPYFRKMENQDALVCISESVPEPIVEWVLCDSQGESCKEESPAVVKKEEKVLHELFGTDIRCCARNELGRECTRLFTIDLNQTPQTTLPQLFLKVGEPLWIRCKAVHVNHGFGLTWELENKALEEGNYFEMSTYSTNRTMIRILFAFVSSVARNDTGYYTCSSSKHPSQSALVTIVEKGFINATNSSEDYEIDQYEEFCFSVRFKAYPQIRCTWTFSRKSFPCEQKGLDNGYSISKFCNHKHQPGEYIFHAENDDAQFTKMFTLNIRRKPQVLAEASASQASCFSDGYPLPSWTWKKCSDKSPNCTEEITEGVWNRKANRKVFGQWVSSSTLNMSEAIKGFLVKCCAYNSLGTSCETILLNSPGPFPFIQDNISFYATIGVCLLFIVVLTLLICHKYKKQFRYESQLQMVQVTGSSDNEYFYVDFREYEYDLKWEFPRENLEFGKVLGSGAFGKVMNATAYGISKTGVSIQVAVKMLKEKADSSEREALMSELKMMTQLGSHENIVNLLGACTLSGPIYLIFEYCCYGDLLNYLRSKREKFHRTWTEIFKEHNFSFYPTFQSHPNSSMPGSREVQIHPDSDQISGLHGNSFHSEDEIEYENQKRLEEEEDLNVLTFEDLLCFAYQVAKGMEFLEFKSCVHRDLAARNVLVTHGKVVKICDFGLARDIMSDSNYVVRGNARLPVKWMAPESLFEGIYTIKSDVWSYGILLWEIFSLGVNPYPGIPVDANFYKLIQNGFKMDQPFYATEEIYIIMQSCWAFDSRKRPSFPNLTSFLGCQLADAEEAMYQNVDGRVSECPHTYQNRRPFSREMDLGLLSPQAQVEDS
Experiment: flow cytometry on NALM16 (FLT3+) cells, PE-conjugated anti human Fcγ secondary antibody
Experimental: In addition, antibody binding affinity was also tested using binding of the antibody to its target(s) as expressed on cells. Analyzed is the binding of CC-2 variants to Nalm16 cells expressing FLT3 (FIG. 4) or Jurkat cells expressing CD3 (FIG. 6). Variants V1 to V9 (with V6 being V6-V6) were produced after transient transfection of CHO cells using the insert sequences listed above. The antibodies were purified by protein A affinity-and size exclusion-chromatography. […] To measure antibody binding to FLT3 and CD3 NALM16 (FLT3+) and Jurkat (CD3+) cells were incubated with the respective variants for 30 min, washed, stained with a goat anti human Fcγ-specific and PE-conjugated secondary antibody (Jackson Immuno Research), washed again and analyzed by flow cytometry (FACSCalibur, BD Biosciences).

B1: V6-V6 (bispecific antibody, human IgG1, kappa)
heavy: QVQLQQPGAELVKPGASLKLSCKSSGYTFTSYWMHWVRQRPGHGLEWIGEIDPSDSYKDYNQKFKDKATLTVDRSSNTAYMHLSSLTSDDSAVYYCARAITTTPFDFWGQGTTLTVSSASTKGPSVFPLAPSSKSTSGGTAALGCLVKDYFPEPVTVSWNSGALTSGVHTFPAVLQSSGLYSLSSVVTVPSSSLGTQTYICNVNHKPSNTKVDKKVEPKSCDKTHTCPPCPAPPVAGPSVFLFPPKPKDTLMISRTPEVTCVVVGVSHEDPEVKFNWYVDGVEVHNAKTKPREEQYNSTYRVVSVLTVLHQDWLNGKEYKCKVSNKQLPSPIEKTISKAKGQPREPQVYTLPPSRDELTKNQVSLTCLVKGFYPSDIAVEWESNGQPENNYKTTPPVLDSDGSFFLYSKLTVDKSRWQQGNVFSCSVMHEALHNHYTQKSLSLSPGKSGDIQMTQSPSSLSASVGDRVTITCRASQDIRNYLNWYQQKPGKAPKLLIYYTSRLESGVPSRFSGSGSGTDYTLTISSLQPEDFATYYCQQGNTLPWTFGQGTKVEIKGGGGSGGGGSGGGGSEVQLVESGGGLVQPGGSLRLSCAASGYSFTGYTMNWVRQAPGKGLEWVALINPYKGVSTYNQKFKDRFTISVDKSKNTAYLQMNSLRAEDTAVYYCARSGYYGDSDWYFDVWGQGTLVTVSS
light: DIVLTQSPATLSVTPGDSVSLSCRASQSISNNLHWYQQKSHESPRLLIKYASQSISGIPSRFSGSGSGTDFTLSINSVETEDFGVYFCQQSNTWPYTFGGGTKLEIKRTVAAPSVFIFPPSDEQLKSGTASVVCLLNNFYPREAKVQWKVDNALQSGNSQESVTEQDSKDSTYSLSSTLTLSKADYEKHKVYACEVTHQGLSSPVTKSFNRGEC
notes: also called CC-2; FLT3 (4G8) x CD3 (humanized hUCHT1) bispecific IgGsc
- EC50: ~1 nM
